Reference: the DeepSol protein solubility set

Assay: soluble on expression in E. coli; label from the status in PepcDB or PDB records

Q: Which “soluble on expression in E. coli” value does the source give for “MSLKNSMTILDAIRALDDPTRLRIMRLLASMELAVGEVAQVLGQSQPRVSRHIKILCDSGLAERRKEGAWVFLRSSIGEGAESPLASALARLLAVAEHEDTAFGRRCSEDRQHLDAIRSSRESHALEWFARHADEWDELRSLHIADGPVEAALTEMLLALSGDGSLGRLLDVGTGTGRIAELFAPNAAHVVAFDKSPDMLRIARARLQHLPADAVELVQGDFAQLPFAARSFDTVLFHQVLHYAQAPEAVLAGAARVTAPGGRVAIVDFAAHEREDLRQTHAHARLGFSDAQIETMLLDAGFIPHETRALAGHELVVKLWTAVRREDSVTQLEPRQKSSSGKTEGHHHHHH” here?
A: soluble

Q: With “MGSDKIHHHHHHMYQPGIVFLFSGHKIGYINERTFRYDTNEYLLLTVPLPFECETFATPEVPLAGMRLNVDILQLQELLMDIGEDPLFQPAVASSGINSAVLSEDILCAAERLLDVMERPLDARILGKQIVREILYYVLTGPCGGALLALVSRQTHFSLISRVLKHIESQYTENLSVDRLAAEANMSVSAFHHNFKAVTSTSPLQYLKNYRLHKARMLMIHDGMKASAAAMRVGYESPSQFSREFKRYFGLTPGEDAARIRTMQGM” as the sequence, how does the “soluble on expression in E. coli” value read?
A: not soluble

Q: With “SLSAASILVVDDEESLRITLAANLELEGHLVLEASSGDEALRLLRERAVDVVLTDIRMPGLHGVELHRHLRREHPGLPVVLMTAFAQESLINDALAEGAFTVLPKPFDVEHLLETLRREG” as the sequence, how does the “soluble on expression in E. coli” value read?
A: soluble

Q: Which “soluble on expression in E. coli” value does the source give for “GQHSLQYFHTAVSRPGLGEPWFISVGYVDDTQFVRFDSDAENPRMEPRARWMEQEGPEYWERETQIAKGHEQSFRGSLRTAQSYYNQSKGGSHTLQWMYGCDMGSDGRLLRGYLQFAYEGRDYIALNEDLKTWTAVDMAAQITRRKWEQAGIAEKDQAYLEGTCMQSLRRYLELGKETLLRTDPPKAHVTHHPRSYGAVTLRCWALGFYPADITLTWQLNGEELTQDMELVETRPAGDGTFQKWASVVVPLGKEQNYTCHVNHEGLPEPLTLRW” here?
A: soluble

Q: Which “soluble on expression in E. coli” value does the source give for “MRGSHHHHHHTDPALRAIPQISQAPGVVQLVLNFLQELEQQGFTGDTATSYADRLTMSTDNSIYQLLPDAVVFPRSTADVALIARLAAQERYSSLIFTPRGGGTGTNGQALNQGIIVDMSRHMNRIIEINPEEGWVRVEAGVIKDQLNQYLKPFGYFFAPELSTSNRATLGGMINTDASGQGSLVYGKTSDHVLGVRAVLLGGDILDTQPLPVELAETLGKSNTTIGRIYNTVYQRCRQQRQLIIDNFPKLNRFLTGYDLRHVFNDEMTEFDLTRILTGSEGTLAFITEARLDITRLPKVRRLVNVKYDSFDSALRNAPFMVEARALSVETVDSKVLNLAREDIVWHSVSELITDVPDQEMLGLNIVEFAGDDEALIDERVNALCARLDELIASHQAGVIGWQVCRELAGVERIYAMRKKAVGLLGNAKGAAKPIPFAEDTCVPPEHLADYIAEFRALLDSHGLSYGMFGHVDAGVLHVRPALDMCDPQQEILMKQISDDVVALTAKYGGLLWGEHGKGFRAEYSPAFFGEELFAELRKVKAAFDPHNRLNPGKICPPEGLDAPMMKVDAVKRGTFDRQIPIAVRQQWRGAMECNGNGLCFNFDARSPMCPSMKITQNRIHSPKGRATLVREWLRLLADRGVDPLKLEQELPESGVSLRTLIARTRNSWHANKGEYDFSHEVKEAMSGCLACKACSTQCPIKIDVPEFRSRFLQLYHTRYLRPLRDHLVATVESYAPLMARAPKTFNFFINQPLVRKLSEKHIGMVDLPLLSVPSLQQQMVGHRSANMTLEQLESLNAEQKARTVLVVQDPFTSYYDAQVVADFVRLVEKLGFQPVLLPFSPNGKAQHIKGFLNRFAKTAKKTADFLNRMAKLGMPMVGVDPALVLCYRDEYKLALGEERGEFNVLLANEWLASALESQPVATVSGESWYFFGHCTEVTALPGAPAQWAAIFARFGAKLENVSVGCCGMAGTYGHEAKNHENSLGIYELSWHQAMQRLPRNRCLATGYSCRSQVKRVEGTGVRHPVQALLEIIKGLCGR” here?
A: soluble

Q: Which “soluble on expression in E. coli” value does the source give for “MGSDKIHHHHHHMYNVGGVVLKRYFVAPGRINVIGEHTDYNEGFVLPVAIDKYVLLSVEKTSGSKISLSSMGREPVSFDESKIQKTGDWSDYLKGVLWVLKDELGTEFGGMSIEINSNLPEGAGLSSSAAVEVAMIVALNSSFNLKLDETELYDYARKAENEFVGVKCGVMDQFAAVMGKKDKAIFLDTLEMRYEYVPLELGDYTFLVFDSKVHHSLSKGGYNTRREEARKALEILGKSSYRDVSMVDLFPNRSRLGELYYRRALHVVSENMRVLESVKIMSNSNFENLGRLLIQSHESLALDYEVSCDETDFIVNTLREMKGVSGARMIGAGFGGSVLSLCEKEEEKKIVEVIKTRYKERFGIDLDSYEVRTSDGAREVDSSFSL” here?
A: not soluble

Q: Which “soluble on expression in E. coli” value does the source give for “MASQLTQRGALFLLFFLTPAVTPTWYAGSGYYPDESYNEVYAEEVPQAPALDYRVPRWCYTLNIQDGEATCYSPKGGNYHSSLGTRCELSCDRGFRLIGRRSVQCLPSRRWSGTAYCRQMRCHALPFITSGTYTCTNGVLLDSRCDYSCSSGYHLEGDRSRICMEDGRWSGGEPVCVDIDPPKIRCPHSREKMAEPEKLTARVYWDPPLVKDSADGTITRVTLRGPEPGSHFPEGEHVIRYTAYDRAYNRASCKFIVKVQVRRCPTLKPPQHGYLTCTSAGDNYGASCEYHCDGGYDRQGTPSRVCQSSRQWSGSPPICAPMKINVNVNSAAGLLDQFYEKQRLLIISAPDPSNRYYKMQISMLQQSTCGLDLRHVTIIELVGQPPQEVGRIREQQLSANIIEELRQFQRLTRSYFNMVLIDKQGIDRDRYMEPVTPEEIFTFIDDYLLSNQELTQRREQRDICE” here?
A: soluble

Q: Which “soluble on expression in E. coli” value does the source give for “MAHHHHHHMADTEAVAGTEAIPPTQNEQHDSAAKKKQANSYYYWHNHEKERAKVGDVAPMPKPVLLKKSDPSVLPASTASYPITKHSWCDGKKNVTVYIDTKLDEKETMVEDTLQVEFGKRRLTVSYIANVQTSKDVATQRRKQLVLCLAKAIKSKESSYKVKDPSGQIVIRLAKAEETSWWELAKKDGKLSDADDSDEENEGKADEGDGAAEEKA” here?
A: soluble

Q: Which “soluble on expression in E. coli” value does the source give for “MGSDKIHHHHHHMSTNTTSHSTTHSTISSQAVVIKQADFIESIADSLQYISYYHPKDFVDAMTKAYEREESAAAKDAIAQILINSRMSAEGKRPLCQDTGIVTTFVKIGMSVQWDKTDMTVQEMVDEGVRRAYTNPDNPLRASIVSDPAGARKNTKDNTPSVVHIDMVAGNQIEVMIAAKGGGSENKSKMAMLNPSDDIAAWVEKTLPTMGAGWCPPGMLGIGIGGTAEKAAVLAKESLMDPVDIHELMARGAETTEEKLRLDIFERANNLGIGAQGLGGLTTVLDVKIKSVPTHAASKPVVMIPNCAATRHVHFHLDGTGPVDLVPPSLSDWPEITREAGENTHRVNLDTVTQAEIETWKSGDTLLLNGKMLTGRDAAHKRIQMLLESGEGLPAGVDFTGKFIYYVGPVDPVGDEVVGPAGPTTATRMDKFTDMMLDQTGLMGMIGKSERGPETVASIKKHKAVYLMAVGGAAYLVSKAIKKSRVVAFEDLGMEAIYEFDVQDMPVTVAVDTNGVNAHETGPAIWKINIANSKANK” here?
A: not soluble

Q: For “MTIPLHTITSFRATFNPFSRSARPCRLLLSLLRNPSTTPASSPTHIDIQVTQLPRHSTQPPEMTVGFRGGKEVKIEVGKKQMKIGDVIEELARVGRSIEREETLKG”, which “soluble on expression in E. coli” value is on record?
A: not soluble

Q: For “NDDKEAKKEAQEKEKNTPNGLVYTNLDFDSFKATIKNLKDKKVTFKEVNPDIIKDEVFDFVIVNRVLKKIKDLKHYDPMIEKIFDEKGKEMGLNVEIQINPEVKDFFTFKSISTTNKQRCFLSLRGETREILCDNKLYNMLLAVFNSYDPNDLLKHISTVESLKKIFYTITCEAVY”, which “soluble on expression in E. coli” value is on record?
A: soluble

Q: Which “soluble on expression in E. coli” value does the source give for “MGSDKIHHHHHHMNSELEINLRKLGFSVYEAKVYLTLLNLCNSTMKELSENAEIPYQKVYEVVKSLEDKGLVRVIEGRPKKVKLIDPSISLKVYRDKIVSELDYAIGNVISYWSEKGKGEADRSLHIKGKTIVMRMIRELVDKSNKIKVVWDILPEWLIKILKKYKGNLTVITSSNNLSLNAEVKYVKNIKSKFIIFDDSVLVTFNDQDEIVVDSCRGCVLQAEEHFDLLTYKSE” here?
A: not soluble

Q: For “MGHHHHHHSHMHVDREFAVVTDMKNSSSVSNTLTNGCVINGHLDFPSTTPLSGMESRNGQCLTGTNGISSGLAPGQPFPSSQGSLCISGTEEPEKTLRANPELCGSLHLNGSPSSCIASRPSWVEDIGDNLYYGHYHGFGDTAESIPELNSVVEHSKSVKVQERYDSAVLGTMHLHHGS”, which “soluble on expression in E. coli” value is on record?
A: not soluble

Q: Which “soluble on expression in E. coli” value does the source give for “MISICLVNTYDKLKKHEIHLRSIARAAPLCYAFNFHLALLDFPFWRSEKEVAEEVANYTTIGEGGKYLLYLAESGKLHLIDKIPAHFGEVVATTSKPDPDKVVNPDTLAAFKSATFLIGLGRRGLPREMLKSAKYHLDVTRKGVSLETCSAIGAIAMLLAVKVVG” here?
A: not soluble

Q: For “MGSDKIHHHHHHMRNMQEKGVSEKEILEELKKYRSLDLKYEDGNIFGSMCSNVLPITRKIVDIFLETNLGDPGLFKGTKLLEEKAVALLGSLLNNKDAYGHIVSGGTEANLMALRCIKNIWREKRRKGLSKNEHPKIIVPITAHFSFEKGREMMDLEYIYAPIKEDYTIDEKFVKDAVEDYDVDGIIGIAGTTELGTIDNIEELSKIAKENNIYIHVDAAFGGLVIPFLDDKYKKKGVNYKFDFSLGVDSITIDPHKMGHCPIPSGGILFKDIGYKRYLDVDAPYLTETRQATILGTRVGFGGACTYAVLRYLGREGQRKIVNECMENTLYLYKKLKENNFKPVIEPILNIVAIEDEDYKEVCKKLRDRGIYVSVCNCVKALRIVVMPHIKREHIDNFIEILNSIKRD”, which “soluble on expression in E. coli” value is on record?
A: not soluble

Q: For “MQSIEHFEPQFLSFIQKEMVQDLAHDINHVLRVVSMAKRLCVEEKGKEAVVIPAAYLHDCFSFAKDHSNRSQSSAFAADKALVFLKEIGYPSEYYDEIHHAIVAHSFSAKVETRTLEAKIVQDADRLDALGAIGIARCLQVSTKLNSPLYSIDDPFCYHREPNDKAYTIDHFYAKLLTLANTMKTTSAVAEAEKRTQYMRDYLTQLESELLEHHHHHH”, which “soluble on expression in E. coli” value is on record?
A: soluble

Q: For “MTKENICIVFGGKSAEHEVSILTAQNVLNAIDKDKYHVDIIYITNDGDWRKQNNITAEIKSTDELHLENGEALEISQLLKESSSGQPYDAVFPLLHGPNGEDGTIQGLFEVLDVPYVGNGVLSAASSMDKLVMKQLFEHRGLPQLPYISFLRSEYEKYEHNILKLVNDKLNYPVFVKPANLGSSVGISKCNNEAELKEGIKEAFQFDRKLVIEQGVNAREIEVAVLGNDYPEATWPGEVVKDVAFYDYKSKYKDGKVQLQIPADLDEDVQLTLRNMALEAFKATDCSGLVRADFFVTEDNQIYINETNAMPGFTAFSMYPKLWENMGLSYPELITKLIELAKERHQDKQKNKYKIDRSHHHHHH”, which “soluble on expression in E. coli” value is on record?
A: soluble

Q: With “MIIDINRLDRAFDLIKEGVSKGVFPGAVAAVGTRERVIRLESFGNRCLYPEKLSMNKDTLFDLASLTKVVATNTLFMIFLEKGLISVYDNVSYYLEKFKGKNKDDVTIFNLLTHTAGFVPCKPLYKLCKGYEDSIDYICRCGLSYKPGTKCVYSDFSYILLAYILEKIGGDTLDILCDRYIFKPLYMENTTFKPKGNNIAATEIDKKTKKPLIGVCHDENGRFFGGISGHAGLFSDIYDLCKFSNMLVNEGKGIISYASFKAMTTNHTLGLEDNRGYGWCIKGDKNSFMGDIAFPETFGHNGFTGTSLWVDIKNNIYAILLTNRVHPTRDNLRIIRFRRVFSNAVLASLTR” as the sequence, how does the “soluble on expression in E. coli” value read?
A: not soluble

Q: With “AKIIFIEHNGTRHEVEAKPGLTVMEAARDNGVPGIDADCGGACACSTCHAYVDPAWVDKLPKALPTETDMIDFAYEPNPATSRLTCQIKVTSLLDGLVVHLPEKQI” as the sequence, how does the “soluble on expression in E. coli” value read?
A: soluble
